Test results: patent publication US20190136216

Biological target: VAMP2, native protein in rat brain detergent extracts (BDE) (UniProt P63045)
Chain of UniProt P63045 (P63045 whole entry, looked up): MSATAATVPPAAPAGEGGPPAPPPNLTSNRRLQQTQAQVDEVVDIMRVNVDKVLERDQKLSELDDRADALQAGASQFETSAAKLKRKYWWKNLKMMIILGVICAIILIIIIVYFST

With “LC of BoNT/B (B-LC), residues 1-439, His6-tagged” the “cleavage of SNARE proteins in rat brain detergent extracts (immunoblot)” value was “abolishes the immunoblot signal of VAMP2”.
